Measured values reported in patent US20090041783A1 (MOCHIDA PHARMACEUTICAL, published 2009).

How the values were obtained:
[1] = biological target: T1, human GPVI extracellular region-human Fc fusion protein (hGPVI-hFc) (human); assay: ELISA on immobilised hGPVI-hFc, anti-human mu-chain detection
T1 construct: Expressed in COS-1, purified on Protein A; also called GPVI-HHH-hFc; hGPVIHHH-hFc

[2] = biological target: T2, human platelet membrane glycoprotein VI (GPVI) on human platelets (human, UniProt Q9HCN6 21-339); assay: flow cytometry on human platelets, 3-4 µg/mL antibody, anti-human IgM-FITC
T2 construct: whole, on cells
T2 sequence (looked up): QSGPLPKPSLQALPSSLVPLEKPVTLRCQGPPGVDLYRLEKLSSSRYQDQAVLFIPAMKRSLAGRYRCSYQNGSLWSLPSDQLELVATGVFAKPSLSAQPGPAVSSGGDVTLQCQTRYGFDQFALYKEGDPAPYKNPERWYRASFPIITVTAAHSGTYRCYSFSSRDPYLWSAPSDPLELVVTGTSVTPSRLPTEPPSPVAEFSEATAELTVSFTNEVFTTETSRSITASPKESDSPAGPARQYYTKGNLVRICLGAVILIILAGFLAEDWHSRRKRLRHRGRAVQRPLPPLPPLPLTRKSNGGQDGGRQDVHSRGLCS
Procedure: Cynomolgus monkey and human PRPs prepared by the method described in 18-1 of EXAMPLE 18 were diluted with FACS buffer to make the platelet concentration 3.75×10⁸ cells/mL. To the diluted PRP, cF1232-37-2 (IgM) or cF1232-43-3 (IgM) prepared in the above 29-2 was added at the final concentration of 3-4 μg/mL, and stood at 25° C. for 30 minutes. After incubation, the platelet was washed with FACS buffer. Subsequently, after adding anti-human IgM-FITC (BD Biosciences Pharmingen) and standing at room temperature for 30 minutes, the platelet was washed with FACS buffer and the fluorescence intensity of the platelet was measured with flow cytometer CYTOMICS FC500 (BECKMAN COULTER). As a result, it was confirmed that both antibodies of cF1232-37-2 (IgM) and cF1232-43-3 (IgM) bind to the monkey and the human platelet.

B1: mouse/human chimeric IgM-type F1232-37-2, cF1232-37-2 (IgM) (antibody)
VH: VQLQQSGPELVRPGESVKISCKGSGYTFTDYAIHWVKLSHAKSLEWIGVISIYYDDTNYNQKFKGKATMTVDKSSSTAYLELARLTSEDSAIYYCARRRDSSGPYAMDYWGQGTSVTVSS
VL: DIVLTQSPASLAVSLGQRATISCRASESVDSYGNSFMHWYQQKPGQPPKLLIYRASNLESGIPARFSGSGSRTDFTLTINPVEADDVATYYCQQSNEDPYTFGGGTKLEIKRADAA
chain: not shown
notes: Heavy chain: V region of cF1232-37-2 with human mu-chain constant region (pTK-2820); the CDRs of both clones are printed identical; Human kappa constant region
- binding result [1]: binds
- binding result [2]: binds
